Laboratory results as given in patent publication US6635751B1, “Isolated nucleic acids encoding activated and suppressive forms of ATF6” (HSP Research Institute, Inc., priority 1998, dated 2003).

Assays:
[1] = system: human GRP78 promoter; assay: Overexpression of pCGN-ATF6 deletion mutants with reporter pGL3-G78(-132) in HeLa cells, ERSE-mediated transcription; assay type: cell-based; settings: for transcription of the luciferase gene from the GRP78 promoter having ERSE: absence of endoplasmic reticulum stress (without TM)
Method: HeLa cells in a 24-well plate were transiently transfected with a reporter plasmid pGL-G78(−132) capable of expressing firefly luciferase gene under the control of human GRP78 promoter, together with pCGN vector alone (Vec) or each of ATF6 expression plasmids. Transfected cells were treated with (closed bars) or without (open bars) 2 μg/ml tunicamycin (TM) for 16 hours prior to measuring luciferase activity. The relative activities are indicated as the mean±standard deviations (bars) from four independent experiments (triplicate determinations).
Using HeLa cells co-transfected with the reporter plasmid pGL3-G78(−132) [see Example 1 (FIG. 6, line 2)] resulting from ligation of the firefly luciferase gene to downstream of the human GRP78 promoter ([−132 to +7], numbered on the basis of the translation initiation point taken as +1) and the expression plasmid for the ATF6 C-terminal deletion mutant of Example 10, the effects of each of the overexpressed C-terminal deletion mutants of ATF6 on ERSE-mediated transcriptional activation were evaluated.
Next, in the same manner as in Example 13, the effect of the overexpression of each ATF6 transcription-activating domain deletion mutant on ERSE-mediated transcriptional activation was evaluated by co-transfection with the reporter plasmid pGL3-G78(−132).

[2] = system: GRP78 promoter; assay: Co-transfection of pcDNA3.1 effector plasmid (full-length ATF6 or CREB-RP) with GRP78 promoter luciferase reporter in HeLa cells; assay type: cell-based, human
Method: 100 ng of an effector plasmid carrying a full-length ATF6 cDNA or plasmid vector alone was cotransfected into HeLa cells with 1 μg of a reporter plasmid containing luciferase gene fused with intact or mutant GRP promoters. The mutant promoter constructs used correspond to those of FIG. 6. Closed bars and open bars indicated cells treated with or without 2 μg/ml tunicamycin (in the figure, referred to as “TM”) for 16 hours, respectively. Experiments were repeated four times.
An effector plasmid carrying a full-length CREB-RP gene was cotransfected into HeLa cells harboring a reporter plasmid in the same manner as in FIG. 14. Experiments were repeated four times. In the figure, TM indicates tunicamycin.
An entire cDNA was inserted into the HindIII-XhoI sites or BamHI-EcoRI sites immediately downstream of the CMV promoter of pcDNA3.1(+) vector (manufactured by Invitrogen) to construct an effector plasmid for expressing ATF6 or CREB-RP, respectively.
In order to examine whether or not ATF6 is involved in the transcriptional regulation of the GRP gene in mammalian cells, HeLa cells were co-transfected with an effector plasmid carrying a full-length ATF6 cDNA and a reporter plasmid resulting from ligation of the firefly luciferase gene to downstream of the intact GRP promoter or a mutant GRP promoter, and GRP promoter activity was evaluated from the luciferase activity.
Therefore, with these findings in mind, a test was carried out to determine whether or not CREB-RP overexpression affects the activity of the GRP promoter.

[3] = presence of TM (2 μg/ml, 16 hours)

B1: ATF6(402): HA-tagged ATF6 amino acids 1st to 402nd; retains the transmembrane domain (protein, UniProt P18850 1-402, looked up, fragment)
chain: MGEPAGVAGTMESPFSPGLFHRLDEDWDSALFAELGYFTDTDELQLEAANETYENNFDNLDFDLDLMPWESDIWDINNQICTVKDIKAEPQPLSPASSSYSVSSPRSVDSYSSTQHVPEELDLSSSSQMSPLSLYGENSNSLSSAEPLKEDKPVTGPRNKTENGLTPKKKIQVNSKPSIQPKPLLLPAAPKTQTNSSVPAKTIIIQTVPTLMPLAKQQPIISLQPAPTKGQTVLLSQPTVVQLQAPGVLPSAQPVLAVAGGVTQLPNHVVNVVPAPSANSPVNGKLSVTKPVLQSTMRNVGSDIAVLRRQQRMIKNRESACQSRKKKKEYMLGLEARLKAALSENEQLKKENGTLKRQLDEVVSENQRLKVPSPKRRVVCVMIVLAFIILNYGPMSMLEQDS
modifications: HA tag
notes: HA-tagged ATF6 amino acids 1st to 402nd; retains the transmembrane domain
- transcription of the luciferase gene from the GRP78 promoter having ERSE [1]: constitutively enhanced

B2: ATF6: full-length ATF6, 670 amino acids (SEQ ID NO: 32), bZIP transcription factor expressed from pcDNA3.1(+) effector plasmid (protein, listed as Homo sapiens)
chain: MGEPAGVAGTMESPFSPGLFHRLDEDWDSALFAELGYFTDTDELQLEAANETYENNFDNLDFDLDLMPWESDIWDINNQICTVKDIKAEPQPLSPASSSYSVSSPRSVDSYSSTQHVPEELDLSSSSQMSPLSLYGENSNSLSSPEPLKEDKPVTGSRNKTENGLTPKKKIQVNSKPSIQPKPLLLPAAPKTQTNSSVPAKTIIIQTVPTLMPLAKQQPIISLQPAPTKGQTVLLSQPTVVQLQAPGVLPSAQPVLAVAGGVTQLPNHVVNVVPAPSANSPVNGKLSVTKPVLQSTMRNVGSDIAVLRRQQRMIKNRESACQSRKKKKEYMLGLEARLKAALSENEQLKKENGTLKRQLDEVVSENQRLKVPSPKRRVVCVMIVLAFIILNYGPMSMLEQDSRRMNPSVSPANQRRHLLGFSAKEAQDTSDGIIQKNSYRYDHSVSNDKALMVLTEEPLLYIPPPPCQPLINTTESLRLNHELRGWVHRHEVERTKSRRMTNNQQKTRILQGALEQGSNSQLMAVQYTETTSSISRNSGSELQVYYASPRSYQDFFEAIRRRGDTFYVVSFRRDHLLLPATTHNKTTRPKMSIVLPAININENVINGQDYEVMMQIDCQVMDTRILHIKSSSVPPYLRDQQRNQTNTFFGSPPAATEATHVVSTIPESLQ
- increase of luciferase expression from GRP78 promoter having intact ERSE sequences over control vector ([2]; absence of TM, 100 ng effector plasmid): 5 fold
- effect on expression from mutant GRP78 promoter lacking all three ERSE sequences [2]: not affected
- effect on reporter expression from intact GRP78 promoter [2, 3]: further increased

B3: ATF(670): full-length ATF6 with HA epitope at N-terminus, expressed from pCGN-ATF6(670) (protein, UniProt P18850 1-670, looked up)
chain: MGEPAGVAGTMESPFSPGLFHRLDEDWDSALFAELGYFTDTDELQLEAANETYENNFDNLDFDLDLMPWESDIWDINNQICTVKDIKAEPQPLSPASSSYSVSSPRSVDSYSSTQHVPEELDLSSSSQMSPLSLYGENSNSLSSAEPLKEDKPVTGPRNKTENGLTPKKKIQVNSKPSIQPKPLLLPAAPKTQTNSSVPAKTIIIQTVPTLMPLAKQQPIISLQPAPTKGQTVLLSQPTVVQLQAPGVLPSAQPVLAVAGGVTQLPNHVVNVVPAPSANSPVNGKLSVTKPVLQSTMRNVGSDIAVLRRQQRMIKNRESACQSRKKKKEYMLGLEARLKAALSENEQLKKENGTLKRQLDEVVSENQRLKVPSPKRRVVCVMIVLAFIILNYGPMSMLEQDSRRMNPSVSPANQRRHLLGFSAKEAQDTSDGIIQKNSYRYDHSVSNDKALMVLTEEPLLYIPPPPCQPLINTTESLRLNHELRGWVHRHEVERTKSRRMTNNQQKTRILQGALEQGSNSQLMAVQYTETTSSISRNSGSELQVYYASPRSYQDFFEAIRRRGDTFYVVSFRRDHLLLPATTHNKTTRPKMSIVLPAININENVINGQDYEVMMQIDCQVMDTRILHIKSSSVPPYLRDQQRNQTNTFFGSPPAATEATHVVSTIPESLQ
modifications: full-length N-terminal HA tag
- transcription of the luciferase gene from the GRP78 promoter having ERSE [1]: constitutively activated

B4: ATF6(151-330): ATF6 amino acids 151st to 330th, transcription-activating domain deletion mutant (protein, UniProt P18850 151-330, looked up, fragment)
chain: DKPVTGPRNKTENGLTPKKKIQVNSKPSIQPKPLLLPAAPKTQTNSSVPAKTIIIQTVPTLMPLAKQQPIISLQPAPTKGQTVLLSQPTVVQLQAPGVLPSAQPVLAVAGGVTQLPNHVVNVVPAPSANSPVNGKLSVTKPVLQSTMRNVGSDIAVLRRQQRMIKNRESACQSRKKKKEY
- action on endogenous p50ATF6 in the nucleus [1]: act dominant-negatively

B5: ATF6(151-366): ATF6 amino acids 151st to 366th, transcription-activating domain deletion mutant (protein, UniProt P18850 151-366, looked up, fragment)
chain: DKPVTGPRNKTENGLTPKKKIQVNSKPSIQPKPLLLPAAPKTQTNSSVPAKTIIIQTVPTLMPLAKQQPIISLQPAPTKGQTVLLSQPTVVQLQAPGVLPSAQPVLAVAGGVTQLPNHVVNVVPAPSANSPVNGKLSVTKPVLQSTMRNVGSDIAVLRRQQRMIKNRESACQSRKKKKEYMLGLEARLKAALSENEQLKKENGTLKRQLDEVVSEN
- action on endogenous p50ATF6 in the nucleus [1]: act dominant-negatively

B6: ATF6(151-373): ATF6 amino acids 151st to 373rd, transcription-activating domain deletion mutant (protein, UniProt P18850 151-373, looked up, fragment)
chain: DKPVTGPRNKTENGLTPKKKIQVNSKPSIQPKPLLLPAAPKTQTNSSVPAKTIIIQTVPTLMPLAKQQPIISLQPAPTKGQTVLLSQPTVVQLQAPGVLPSAQPVLAVAGGVTQLPNHVVNVVPAPSANSPVNGKLSVTKPVLQSTMRNVGSDIAVLRRQQRMIKNRESACQSRKKKKEYMLGLEARLKAALSENEQLKKENGTLKRQLDEVVSENQRLKVPS
- action on endogenous p50ATF6 in the nucleus [1]: act dominant-negatively

B7: ATF6(330): HA-tagged ATF6 amino acids 1st to 330th; lacks the leucine zipper region (protein, UniProt P18850 1-330, looked up, fragment)
chain: MGEPAGVAGTMESPFSPGLFHRLDEDWDSALFAELGYFTDTDELQLEAANETYENNFDNLDFDLDLMPWESDIWDINNQICTVKDIKAEPQPLSPASSSYSVSSPRSVDSYSSTQHVPEELDLSSSSQMSPLSLYGENSNSLSSAEPLKEDKPVTGPRNKTENGLTPKKKIQVNSKPSIQPKPLLLPAAPKTQTNSSVPAKTIIIQTVPTLMPLAKQQPIISLQPAPTKGQTVLLSQPTVVQLQAPGVLPSAQPVLAVAGGVTQLPNHVVNVVPAPSANSPVNGKLSVTKPVLQSTMRNVGSDIAVLRRQQRMIKNRESACQSRKKKKEY
modifications: HA tag
notes: HA-tagged ATF6 amino acids 1st to 330th; lacks the leucine zipper region
- activity compared with ATF6(373) or ATF(366) ([1]; nearly the same expression level): markedly lower activity

B8: CREB-RP: full-length CREB-RP (SEQ ID NO: 34) expressed from pcDNA3.1(+) effector plasmid (protein, listed as Homo sapiens)
chain: MAELMLLSEIADPTRFFTDNLLSPEDWDSTLYSGLDEVAEEQTQLFRCPEQDVPFDGSSLDVGMDVSPSEPPWELLPIFPDLQVKSEPSSPCSSSSLSSESSRLSTEPSSEALGVGEVLHVKTESLAPPLCLLGDDPTSSFETVQINVIPTSDDSSDVQTKIEPVSPCSSVNSEASLLSADSSSQAFIGEEVLEVKTESLSPSGCLLWDVPAPSLGAVQISMGPSLDGSSGKALPTRKPPLQPKPVVLTTVPMPSRAVPPSTTVLLQSLVQPPPVSPVVLIQGAIRVQPEGPAPSLPRPERKSIVPAPMPGNSCPPEVDAKLLKRQQRMIKNRESACQSRRKKKEYLQGLEARLQAVLADNQQLRRENAALRRRLEALLAENSELKLGSGNRKVVCIMVFLLFIAFNFGPVSISEPPSAPISPRMNKGEPQPRRHLLGFSEQEPVQGVEPLQGSSQGPKEPQPSPTDQPSFSNLTAFPGGAKELLLRDLDQLFLSSDCRHFNRTESLRLADELSGWVQRHQRGRRKIPQRAQERQKSQPRKKSPPVKAVPIQPPGPPERDSVGQLQLYRHPDRSQPAFLDAIDRREDTFYVVSFRRGHLLLPAISHNKTSRPKMSLVMPAMAPNETLSGRGAPGDYEEMMQIECEVMDTRVIHIKTSTVPPSLRKQPSPTPGNATGGPLPVSAASQAHQASHQPLYLNHP
- effect on reporter expression from intact GRP78 promoter ([2]; absence of TM): hardly affected
- effect on expression from mutant GRP78 promoter lacking all three ERSE sequences [2]: did not affect
- effect on reporter expression from intact GRP78 promoter [2, 3]: markedly suppressed
